Columns and labels:
[1] = Tissue cross-reaction study (staining of healthy tissues); settings: non-specific crossreactivity
Description: The staining specificity of the IgM 16D10 and chimeric IgG rec16D10 antibodies was assessed by examining their respective staining of various healthy tissues. […] Staining with the chimeric antibody reel 6D10, in contrast, was negative on each of these healthy tissues.

[2] = system: 16D10 antigen on PANC-1 cells; experiment: Flow cytometry detection of antigen at the cell surface, PANC-1; assay type: binding, human
Description: Detection of antigens at the surface of SOJ-6 and PANC-1 cells was carried out by indirect fluorescence under the following conditions: cells were released from culture plates by treatment with a non enzymatic dissociation liquid (Calbiochem) for 15 minutes at 37° C. All subsequent steps were carried out at 4° C. The cells were washed with phosphate buffered saline (PBS), fixed with 2% paraformaldehyde in PBS for 15 minutes, and washed with 1% BSA in PBS for 15 minutes. Antigens were exposed for 2 hours to specific antibodies, washed with PBS, and finally incubated for 45 minutes with appropriate FITC-labeled secondary antibodies. Cells were then washed, resuspended in isoflow buffer, and analyzed on Coulter FACSCalibur device.
Flow cytometry experiments were carried out to investigate whether the antigen recognized by 16D10 was found on the surface of cells. Results are shown in FIGS. 14 and 15, representing SOJ-6 and PANC-1 cells, respectively. […] In each case, 16D10 binding was compared to a negative control and a control mouse IgM (Sigma).

SOJ-6 cells [3] = experiment: Apoptosis by caspase activity (CaspACE FITC-VAD-fmk in situ marker); assay type: cell-based, human
Description: Cells grown in 8-well plates (Polystyrene vessel, BD Falcon) were treated with mAb16D10 or mouse IgM in RPMI with inactivated FCS for 24 hours prior to the addition of CaspACE FITC-VAD-fmk in situ marker (Promega) at a final concentration of 10 μM in the culture medium according to manufacturer's instructions. Then cells were washed in PBS, fixed for 15 minutes in 2% paraformaldehyde, and washed once again. Upon caspase action on FITC-VAD-fmk, apoptotic cells become fluorescent and the number of fluorescent cells was determined in triplicate on collections of 10 fields randomly examined under the fluorescent microscope.

SOJ-6 cells [4] = experiment: Cell-cycle distribution by propidium iodide flow cytometry, SOJ-6; assay type: cell-based, human; settings: SOJ-6 after mAb16D10 treatment
Description: Cells were washed twice using cold PBS 1×/BSA 0.2%/Sodium Azide 0.05% buffer. Staining was performed using the different antibodies during 1H at 4° C. into round 96-well plates using 5×10^4 cells per well. Cells were then washed twice before being incubated with secondary reagents. After two washes, cells were re-suspended before acquisition into PBS1X/Formaldehyde 1%. Stainings were acquired on a FACScan (Becton Dickinson, San Jose, Calif.) and results were analysed using FlowJo Software. SOJ-6 cells pre-treated or not with 5 μg/ml aphidicolin (a reversible inhibitor of eukaryotic nuclear DNA replication, which blocks the cell cycle at early S-phase) for 6 h, were then incubated with mAb16D10 or irrelevant IgM used as a negative control. Cells were released from culture plates with a non-enzymatic cell dissociation solution, washed with PBS^+/+, fixed with 70% ethanol at −20° C. and washed with PBS^+/+. The cells were resuspended in a solution of 400 μg/ml propidium iodide in isoflow buffer and were incubated for 30 min at room temperature as already described [Mi-Lian et al., 2004]. Cell-cycle distribution was detected by flow cytometry and analyzed by Mod Fit software (Verity Software House, Inc., Topsham, Me.). The red fluorescence of single events was recorded using excitation and emission at 488 nm and at 610 nm respectively, to measure the DNA index.
We next wished to know whether mAb16D10-induced apoptosis was due, in part, to the arrest of the cell cycle. Cell cycle distribution of the SOJ-6 cells after treatment was assessed by observing DNA profiles following SOJ-6 cells pre-treated not or with aphidicolin, treated not or with mAb16D10. Each experiment was carried out in triplate. We used a specific DNA marker, Propidium Iodide, to determine the different phases of the cell cycle by flow cytometry. […] Indeed, the shift of cells from the G2/M to the G1/S phase and from the G1/S to the apoptosis was also observed following aphidicolin treatment. […]

SOJ-6 cells [5] = experiment: Nuclear staining with DAPI (nuclear fragmentation); assay type: cell-based, human; settings: RPMI induced no apoptosis
Description: After treatment with mAb16D10 or cisplatin, cells were washed in ice-cold PBS, fixed and permeablized with 70% ethanol for 5 min at […] and staining with diluted 1/1000 DAPI solution in PBS for 1 min at room temperature. The cells were then washed with PBS. The nuclear morphology of cells was examined by fluorescence microscopy.

[6] = system: p53, cyclin D1, GSK-3β in SOJ-6 cells; experiment: Western blot of cell cycle regulatory proteins; assay type: cell-based, human
Description: SOJ-6 cells were grown in 6-well culture plates in RPMI 1640 medium with 10% FCS. At subconfluency, the medium was removed and replaced for 24 hours by fresh RPMI medium with 10% inactivated FCS. SOJ-6 cells were then incubated with mAb16D10 or Cisplatin for 24 hours. At the end of incubation, cells were washed three times with ice-cold PBS (without […] and Mg^++) harvested and pelleted by centrifugation. Pellets were washed twice and lysed at 4° C. in 0.5 ml of lysis buffer (10 mM Tris-HCl pH 7.4, 150 mM NaCl, 1% Triton X-100, 1 mM benzamidine and phosphatase inhibitors). After lysis, homogenates were clarified by centrifugation at 10,000 g for 10 min at 4° C. An aliquot was saved for protein determination using the bicinchoninic acid assay (Pierce, Rockford, Ill.). Proteins (50 μg/lane) in reducing SDS buffer were separated onto 10, 12, or 15% polyacrylamide with 0.1% SDS (according to the molecular weight range of proteins to be separated). After electrophoretic migration, proteins were silver stained. Alternatively, proteins were transferred onto nitrocellulose membranes using a Mini Transblot electrophoretic cell (BioRad, Hercule, Oreg.), and transferred proteins were immunodetected by using appropriate primary and secondary antibodies. After washes, membranes were developed with a chemoluminescent substrate according to the manufacturer's instructions (Roche Diagnostics, Switzerland). In each experiment, a control was included by omitting primary antibodies or by using a non-immune serum.
The expression of different cell cycle regulatory proteins, specifically p53 and cyclin D1, was next analyzed. […] Since cyclin D1 expression may be directly regulated by GSK-3β (Diehl et al., 1998 Genes Dev. 12(22):3499-511), we next focused on the expression level of this kinase in SOJ-6 cells once challenged with mAb16D10.

B1: 16D10: IgM monoclonal antibody recognizing FAPP/BSDL; producing cells deposited with the CNCM under the number I-3188 (antibody, listed as Mus musculus, V domains shown)
VH: QVQLQQSDAELVKPGASVKISCKASGYTFTDHAIHWVKQKPEQGLEWIGYISPGNDVIKFNEKFKGKATLTADKSSSTAYMQLNSLTSEDSAVYFCKRSEGGVFDYWGQGTTLTVS
VL: NIMMTQSPSSLAVSAGEKVTMSCKSSQSVLYSSNQKNFLAWYQQKPGQSPKLLIYWASTRESGVPDRFTGSGSGTDFTLTISSVQAEDLAVYYCHQYLSSYTFGGGTKLEIK
staining of healthy tissues (tonsils, salivary gland, peripheral nerve, eyes, bone marrow, ovary, oviduct, parathyroid, prostate, spleen, kidney, adrenals, testes, thymus, ureters, uterus, bladder) [1]: positive staining | binding to antigen on PANC-1 cells [2]: did not bind antigen present on PANC-1 cells | apoptotic cellular death of SOJ-6 cells (number of apoptotic cells/cm2) (SOJ-6 cells [3]; 24 h, compared to RPMI and mouse IgM): leads to the apoptosis of SOJ-6 cells | apoptosis by caspase activity (number of apoptotic cells compared to control) (SOJ-6 cells [3]; SOJ-6, 24 hours, 16D10 25 μg/ml, recombinant chimeric 16D10 5 μg/ml): clearly enhanced | caspases through which apoptosis is stimulated (SOJ-6 cells [3]; cells pre-treated with or without caspase inhibitors): stimulates apoptosis through the caspase-3, caspase-8, and caspase-9 | apoptotic cells (SOJ-6 cells [4]): 6% | cells in G1/S (SOJ-6 cells [4]): 96% | cells in G2/M phase (SOJ-6 cells [4]): 4% | apoptosis observed by DAPI staining (nuclear fragmentation) (SOJ-6 cells [5]): significant levels of apoptosis | expression of cyclin D1 [6]: decreased that of cyclin D1 | expression of p53 [6]: increased the expression of p53 | expression of total GSK-3β [6]: constant | phospho-GSK-3β (inactive form) [6]: a decrease in the phospho-GSK-3β

Reference: US20100124555A1, “Compositions and Methods for Treating Pancreatic Tumors” (UNIVERSITE DE LA MEDITERRANEE, priority 2007, published 2010)
